# Measurements published in US20080125354A1 (FLORIDA ATLANTIC UNIVERSITY, published 2008).
# Legend:
# MMP-13 (collagenase 3) = MMP-13 (collagenase 3) (UniProt P45452 20-471, limits assumed); assay: cell-based or functional assay
# [1] = target: MMP-8 (neutrophil collagenase, collagenase 2) (UniProt P22894 21-467, limits assumed); assay: cell-based or functional assay
# MMP-8 (neutrophil collagenase, collagenase 2), sequence (P22894 21-467 limits assumed): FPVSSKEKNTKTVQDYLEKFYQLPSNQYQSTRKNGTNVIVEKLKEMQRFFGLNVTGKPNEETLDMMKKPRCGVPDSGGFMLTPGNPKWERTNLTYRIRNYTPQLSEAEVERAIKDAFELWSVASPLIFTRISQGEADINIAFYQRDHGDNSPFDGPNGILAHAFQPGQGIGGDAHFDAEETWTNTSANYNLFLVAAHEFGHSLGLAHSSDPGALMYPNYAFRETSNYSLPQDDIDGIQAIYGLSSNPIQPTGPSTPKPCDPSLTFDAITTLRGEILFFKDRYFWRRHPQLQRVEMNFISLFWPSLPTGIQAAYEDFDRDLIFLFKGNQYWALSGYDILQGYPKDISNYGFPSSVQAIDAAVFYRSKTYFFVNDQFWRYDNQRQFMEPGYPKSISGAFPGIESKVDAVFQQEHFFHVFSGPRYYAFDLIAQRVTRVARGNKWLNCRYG
Binder,"IC50, inhibition of enzyme activity (fluorogenic substrate) (MMP-13 (collagenase 3))","IC50, inhibition of enzyme activity (fluorogenic substrate) [1]"
"phosphinate-containing triple-helical peptide-amphiphile f3, C6-(Gly-Pro-Hyp)5-Gly-Pro-Pro-[Gly~Val]-Val-Gly-Glu-Gln-(Gly-Pro-Hyp)5-NH2 (N-terminal hexanoic acid (C6); Hyp (4-hydroxyproline) at 3, 6, 9, 12, 15, 27, 30, 33, 36, 39 (written P in letters); Gly19-Val20 peptide bond replaced by phosphinate psi{PO2H-CH2}; hypothesised phosphino Gly-(D)Val analog; C-terminal amide) peptide: not shown",~10 µM,~50 µM
"phosphinate-containing triple-helical peptide-amphiphile f4, C6-(Gly-Pro-Hyp)5-Gly-Pro-Pro-[Gly~Val]-Val-Gly-Glu-Gln-(Gly-Pro-Hyp)5-NH2 (N-terminal hexanoic acid (C6); Hyp (4-hydroxyproline) at 3, 6, 9, 12, 15, 27, 30, 33, 36, 39 (written P in letters); Gly19-Val20 peptide bond replaced by phosphinate psi{PO2H-CH2}; hypothesised phosphino Gly-(L)Val analog; C-terminal amide, One of two RP-HPLC-separated diastereomers of the C6-lipidated peptide; Triple helix of three identical strands by self-assembly; also called Peptide-amphiphile 2; peptide-amphiphile mimic) peptide: not shown",~10 µM,~50 µM
